These substances were tested against WT murine C3b (mouse) (UniProt P01027) (assay: SPR; BIAcore S200; murine C3b (WT or Asn1115) amine coupled to a CM5 chip (930 ± 10 RU); analytes in 2-fold dilution series in HBST (10 mM HEPES, 150 mM NaCl, 0.005% Tween-20, pH 7.4), 30 μl/min for 200 s; steady-state model).

Sequence of full-length mouse serum-derived FH (P06909 19-1234): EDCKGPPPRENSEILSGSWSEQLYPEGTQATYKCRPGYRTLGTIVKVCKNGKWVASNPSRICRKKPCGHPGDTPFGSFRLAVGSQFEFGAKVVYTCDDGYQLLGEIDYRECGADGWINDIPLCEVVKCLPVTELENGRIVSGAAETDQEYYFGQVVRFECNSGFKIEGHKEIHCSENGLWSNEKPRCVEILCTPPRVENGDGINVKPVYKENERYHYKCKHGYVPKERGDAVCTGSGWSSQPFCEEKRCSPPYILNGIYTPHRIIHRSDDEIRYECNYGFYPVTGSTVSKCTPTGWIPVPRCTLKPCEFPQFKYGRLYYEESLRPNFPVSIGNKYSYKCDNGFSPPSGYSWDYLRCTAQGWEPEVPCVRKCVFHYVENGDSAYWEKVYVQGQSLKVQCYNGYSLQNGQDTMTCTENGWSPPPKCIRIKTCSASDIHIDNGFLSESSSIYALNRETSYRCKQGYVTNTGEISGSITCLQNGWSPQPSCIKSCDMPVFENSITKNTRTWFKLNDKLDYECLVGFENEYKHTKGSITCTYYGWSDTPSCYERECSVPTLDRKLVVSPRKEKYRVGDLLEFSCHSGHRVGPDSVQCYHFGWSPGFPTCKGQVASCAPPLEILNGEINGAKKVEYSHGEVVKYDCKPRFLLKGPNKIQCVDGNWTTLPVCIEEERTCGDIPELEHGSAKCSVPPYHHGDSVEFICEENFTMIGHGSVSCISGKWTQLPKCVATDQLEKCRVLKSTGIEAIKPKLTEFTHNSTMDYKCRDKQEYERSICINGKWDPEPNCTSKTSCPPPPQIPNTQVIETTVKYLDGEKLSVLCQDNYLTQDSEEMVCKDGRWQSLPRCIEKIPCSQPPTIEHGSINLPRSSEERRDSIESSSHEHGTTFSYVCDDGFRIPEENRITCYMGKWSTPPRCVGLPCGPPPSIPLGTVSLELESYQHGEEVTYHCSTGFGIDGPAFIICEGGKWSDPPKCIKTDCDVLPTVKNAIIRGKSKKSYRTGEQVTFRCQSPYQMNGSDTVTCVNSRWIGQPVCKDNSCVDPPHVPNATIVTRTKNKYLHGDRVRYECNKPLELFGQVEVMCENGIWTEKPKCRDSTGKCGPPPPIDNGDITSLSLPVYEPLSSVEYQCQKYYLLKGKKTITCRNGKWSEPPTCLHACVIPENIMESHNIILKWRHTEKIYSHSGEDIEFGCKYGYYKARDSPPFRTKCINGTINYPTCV

Kd [µM] | Substance
1.4 | full-length mouse serum-derived FH (from UniProt P06909 19-1234) (natural protein)
9.4 | recombinant human FH SCRs 19–20 (domain or fragment)
3.2 | recombinant murine Crry SCRs 1–5 (domain or fragment)
2.9 | recombinant murine FH SCRs 1–5 (domain or fragment)
